# Assay results from article PMC6206164, “Fibroblast Growth Factor Binding Protein 3 (FGFBP3) impacts carbohydrate and lipid metabolism” (Scientific Reports, 2018).
# B1: MBP-tagged human recombinant BP3 devoid of its signal peptide (natural protein, UniProt Q8TAT2 27-258, looked up)
# chain: RREKGAASNVAEPVPGPTGGSSGRFLSPEQHACSWQLLLPAPEAAAGSELALRCQSPDGARHQCAYRGHPERCAAYAARRAHFWKQVLGGLRKKRRPCHDPAPLQARLCAGKKGHGAELRLVPRASPPARPTVAGFAGESKPRARNRGRTRERASGPAAGTPPPQSAPPKENPSERKTNEGKRKAALVPNEERPMGTGPDPDGLDGNAELTETYCAEKWHSLCNFFVNFWNG
# notes: also called FGFBP3
# Assays:
# [1] = molecular target: T1, Human recombinant FGFR4 Fc Chimera (human, UniProt P22455 22-369); experiment: binding to plate-coated receptor detected by western blot; cell-free; FGFR4 Fc chimera coated on MaxiSorp plates; FGF19 (2 μg/ml) ± BP3 or MBP control (1 μg/ml), 2 h room temperature; bound proteins blotted with anti-FGFR4, anti-MBP, anti-FGF19; details: both partners purified
# T1 construct: Fibroblast growth factor receptor 4 (FGFR4), human, as Fc chimera; Commercial Fc chimeras of this kind hold the extracellular domain; source: bought: R&D Systems
# [2] = molecular target: B1; experiment: ELISA; competitive binding; increasing excess of KLB or KLa bound to immobilised FGF19 or FGF21 (2.5 μg/ml) for 1 h before BP3 or MBP control (0.15 μg/ml); MaxiSorp plates; details: both partners purified
binding result [1],binding result [2],Binder
binds,–,B1
–,binds,"Recombinant human FGF21 (ligand, UniProt Q9NSA1 29-209, looked up, Fibroblast growth factor 21 (FGF21), human, recombinant; source: bought: R&D Systems) HPIPDSSPLLQFGGQVRQRYLYTDDAQQTEAHLEIREDGTVGGAADQSPESLLQLKALKPGVIQILGVKTSRFLCQRPDGALYGSLHFDPEACSFRELLLEDGYNVYQSEAHGLPLHLPGNKSPHRDPAPRGPARFLPLPGLPPALPEPPGILAPQPPDVGSSDPLSMVGPSQGRSPSYAS"
